Assay results reported in the nanobody polyreactivity screen of Harvey et al. (2022).

Assay: yeast display, Sf9 membrane polyspecificity reagent, FACS + sequencing; frameworks hold sequencing errors
Method in brief: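 Nanobodies from a synthetic yeast display library (Saccharomyces cerevisiae BJ5465), induced 36–48 hours with galactose, were stained 1 hour at 4 °C with 10% biotinylated, detergent-solubilized Sf9 membrane reagent, enriched on streptavidin microbeads, then FACS-sorted. Anti-HA (expression) and streptavidin (reagent binding) fluorescence set low and high (top ~1%) gates. Polyreactivity labels come from the gate of origin. Genes were colony-PCR amplified, MiSeq 2 × 250 sequenced and filtered by CDR length.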

Sequence: QVQLVESGGGLVQAGGSLRLSCAASGNIFAVYAMGWYRQAPGKERELVAAISYSSTRTYYADSVKGRFRISRDNAKNTVYLQMNSLKPEDTAVYYCAVETWWDYDYWGQGTQVTVSS
- polyreactivity (PSR sort gate): high polyreactivity

Sequence: QVQLVESGGGLVQAGGSLRLSCAASGNIFAWSAMGWYRQAPGKERELVARITVGSTYYADSVKGRFTISRDNAKNTVYLQMNSLKPEDTAVYYCNKDSGEDDRWPYDYWGQGTQVTVSS
- polyreactivity (PSR sort gate): low polyreactivity

Sequence: QVQLVESGGGLVQAGGSLRLSCAASGNIFAYYAMGWYRQAPGKERELVAAITDSGGNTFYADSVKGRFTISRDNAKNTVYLQMNSLKPEDTAVYYCAADPDGWGFVYPRYDYWGQGTQVTVSS
- polyreactivity (PSR sort gate): low polyreactivity

Sequence: QVQLVESGGGLVQAGGSLRLSCAASGNIFAYYAMGWYRQAPGKERELVAGISRRGGNTYYADSVKGRFTISRDNAKNTVYLQMNSLKPEDTAVYYCAAKTYSGQRFDYWGQGTQVTVSS
- polyreactivity (PSR sort gate): high polyreactivity

Sequence: QVQLVESGGGLVQAGGSLRLSCAASGNIFDTYVMGWYRQAPGKERELVAAITSDGGTYYADSVKGRFTIARDNAKNTVYLQMNSLKPEDTAVYYCAADTYYYPIQDYWGQGTQVTVSS
- polyreactivity (PSR sort gate): low polyreactivity

Sequence: QVQLVESGGGLVQAGGSLRLSCAASGNIFETNAMGWYRQAPGKERELVAAITRSGGSTYYADSVKGRFTISRDNAKNTVYLQMNSLKPEDTAVYYCAYYPYGYDYWGQGTQVTVSS
- polyreactivity (PSR sort gate): high polyreactivity

Sequence: QVQLVESGGGLVQAGGSLRLSCAASGNIFETNAMGWYRQAPVKERELVAAISASGGSTYYADSVKGRFTISRDNAKNNVYLQMNSLKPEDTAVYYCNDRVDSYYGDAFDYWGQGTQVTVSS
- polyreactivity (PSR sort gate): high polyreactivity

Sequence: QVQLVESGGGLVQAGGSLRLSCAASGNIFFGYAMGWYRQAPGKEREFVASITKIGGSTYYADSVQGRFTISRDNAKNTVYLQMNSLKPEHTAVYYCAKTILYDCDYWGQGTQVTVSS
- polyreactivity (PSR sort gate): low polyreactivity

Sequence: QVQLVESGGGLVQAGGSLRLSCAASGNIFGHYAMGWYRQAPGKERELVAAISSRGGRTYYADSVKGRFTISRDNAKNTVYLQMNSLKPEDTAVYYCAHKTRQKFGYWGQGTQVTVSS
- polyreactivity (PSR sort gate): high polyreactivity

Sequence: QVQLVESGGGLVQAGGSLRLSCAASGNIFGRYAMGWYRQAPGKERELVAAISSGDITYYADSVKGRFTISRDNAKNTVYLQMNSLKPEDTAVYYCAADSYWSVVYIKYDYWGQGTQVTVSS
- polyreactivity (PSR sort gate): low polyreactivity

Sequence: QVQLVESGGGLVQAGGSLRLSCAASGNIFGWYAMGWYRQAPGKERELVAAISSGGRTNYADSVKGRFTISRDNAKNTVYLQMNSLKPEDTAVYYCAVGLHKRPPPPRFRQYNYWGQGTQVTVSS
- polyreactivity (PSR sort gate): low polyreactivity

Sequence: QVQLVESGGGLVQAGGSLRLSCAASGNIFHDNAMGWYRQAPGKERELVAAISDSGGSTYYADSVKGRFTISRDTAKNTVYLQMNSLKPEDTAVYYCDSGRTYYAPYQWWYDYWGQGTQVTVSS
- polyreactivity (PSR sort gate): high polyreactivity

Sequence: QVQLVESGGGLVQAGGSLRLSCAASGNIFIRYAMGWYRQAPGKERELVAAISQSGGGTSYADSVKGRFRISRDNAKNTVYLQMNSLKPEDTAVSYCNVEKVGHFNSYGYDYWGQGTQVTVSS
- polyreactivity (PSR sort gate): low polyreactivity

Sequence: QVQLVESGGGLVQAGGSLRLSCAASGNIFKQYTMGWYRQAPGKERELVAAIRSRGGSTYYADSVKGRLTISRDNAKNTVYLQMNSLKPEDTAVYYCAKVLGRTTLRMDYWGQGPQVTVSS
- polyreactivity (PSR sort gate): high polyreactivity

Sequence: QVQLVESGGGLVQAGGSLRLSCAASGNIFLSYAMGWYRQAPGKERDLVAGISASGGRTYYADSVKGRFTISRDNAKNTVYFQMNSLKPEDTALYYCNAGWGVVIRRYPTYDYWGQGTQVTVSS
- polyreactivity (PSR sort gate): high polyreactivity

Sequence: QVQLVESGGGLVQAGGSLRLSCAASGNIFLYYAMGWYRQAPGKERELVADIDSSGASTYYADSVKGRFTISRDNAKNTVYLQMNSLKPEDTAVYNCAARAERVREYNYWGQGTQVTVSS
- polyreactivity (PSR sort gate): low polyreactivity

Sequence: QVQLVESGGGLVQAGGSLRLSCAASGNIFNEYARGWYSQAPGKESELVAAITWSAGSTYYADSVKGRFTISRDNAKNTVYLQMNSVKPEDTGVYYCNTQEKANTQHYYWGQGTQVTVSS
- polyreactivity (PSR sort gate): low polyreactivity

Sequence: QVQLVESGGGLVQAGGSLRLSCAASGNIFPPNTMGWDRQAPGKDRELVAAISSRGSRTYYADSVKGRFTISRDNAKNTVYLQMNSLKPEDTAVYYCAAQQWQGGYLYDYWGQGTQVTVSS
- polyreactivity (PSR sort gate): high polyreactivity

Sequence: QVQLVESGGGLVQAGGSLRLSCAASGNIFQGNAMGWYRQAPGKERELVAAITSDGSTYADSVKGRFTISRDNAKNTVYLQLNSLKPEDTAVYYCNADGITSLPVPALDYWGQGTQATVSS
- polyreactivity (PSR sort gate): low polyreactivity

Sequence: QVQLVESGGGLVQAGGSLRLSCAASGNIFQGNAMGWYRQAPGKERELVAAITSDGSTYADSVKGRFTISRDNAKNTVYLQMNSLKPEETAVYYCNADCITSLPVPALDYWGQGTQVTVSS
- polyreactivity (PSR sort gate): low polyreactivity

Sequence: QVQLVESGGGLVQAGGSLRLSCAASGNIFQRYAMGWYRQAPGKVRELVAAISGNGGNSFYADSVKGRFTISRDNAKYTVYLQMNSLKPEDTAVYYCNTVYVVYGFDYWGQGTQVTVSS
- polyreactivity (PSR sort gate): high polyreactivity
